Sequences and labels used below:
T1: β-catenin (UniProt P35222 1-781)
T1 sequence (looked up): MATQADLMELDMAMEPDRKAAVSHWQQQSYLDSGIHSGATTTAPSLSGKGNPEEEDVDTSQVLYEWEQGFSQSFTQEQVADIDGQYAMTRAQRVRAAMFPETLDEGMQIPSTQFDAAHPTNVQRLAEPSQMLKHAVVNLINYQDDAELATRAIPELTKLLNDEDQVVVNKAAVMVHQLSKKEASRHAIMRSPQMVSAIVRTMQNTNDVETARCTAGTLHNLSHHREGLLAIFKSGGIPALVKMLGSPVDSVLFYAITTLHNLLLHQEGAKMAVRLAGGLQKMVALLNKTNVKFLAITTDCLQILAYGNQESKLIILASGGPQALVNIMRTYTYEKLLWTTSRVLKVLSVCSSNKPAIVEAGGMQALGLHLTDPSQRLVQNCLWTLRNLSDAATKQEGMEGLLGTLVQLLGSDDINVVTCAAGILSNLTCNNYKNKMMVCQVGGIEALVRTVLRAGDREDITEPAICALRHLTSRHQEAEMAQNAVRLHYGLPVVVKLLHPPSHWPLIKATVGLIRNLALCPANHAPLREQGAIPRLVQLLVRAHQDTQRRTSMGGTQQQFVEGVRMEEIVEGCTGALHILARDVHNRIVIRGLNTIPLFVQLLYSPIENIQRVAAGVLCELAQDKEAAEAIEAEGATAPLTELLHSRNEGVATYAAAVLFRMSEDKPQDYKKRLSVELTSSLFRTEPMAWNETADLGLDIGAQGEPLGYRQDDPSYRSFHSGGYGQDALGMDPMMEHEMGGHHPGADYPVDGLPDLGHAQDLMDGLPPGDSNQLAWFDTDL

B1: BCL9 peptide 19 (linkers closer to the N-terminus, linear) (peptide)
chain: LSQEQ[Lys(N3)]EHR[dPra]RSLQTLRDIQRLLF
modifications: not fully specified (N-terminus, C-terminus)
B2: triazole-stapled BCL9 peptide 24 (reverse staple towards the C-terminus) (peptide)
chain: LSQEQLEHRERSL[Pra]TLR[dLys(N3)]IQRLLF
modifications: triazole 14-18; not fully specified (N-terminus, C-terminus)
B3: triazole-stapled BCL9 peptide 22 (C-terminal stapled peptide) (peptide)
chain: LSQEQLEHRERSL[Lys(N3)]TLR[dPra]IQRLLF
modifications: triazole 14-18; not fully specified (N-terminus, C-terminus)
B4: BCL9 peptide 23 (reverse linkers towards the C-terminus, linear) (peptide)
chain: LSQEQLEHRERSL[Pra]TLR[dLys(N3)]IQRLLF
modifications: not fully specified (N-terminus, C-terminus)
B5: BCL9 peptide 21 (linkers closer to the C-terminus, linear) (peptide)
chain: LSQEQLEHRERSL[Lys(N3)]TLR[dPra]IQRLLF
modifications: not fully specified (N-terminus, C-terminus)
B6: triazole-stapled BCL9 peptide 20 (staple closer to the N-terminus) (peptide)
chain: LSQEQ[Lys(N3)]EHR[dPra]RSLQTLRDIQRLLF
modifications: triazole 6-10; not fully specified (N-terminus, C-terminus)
B7: triazole-stapled BCL9 peptide 17 (reversed staple, D-Nle(εN3) at i+4) (peptide)
chain: LSQEQLEHR[Pra]RSL[dLys(N3)]TLRDIQRLLF
modifications: triazole 10-14; not fully specified (N-terminus, C-terminus)
B8: triazole-stapled BCL9 peptide 16 (reversed linker, L-Pra and L-Nle(εN3)) (peptide)
chain: LSQEQLEHR[Pra]RSL[Lys(N3)]TLRDIQRLLF
modifications: triazole 10-14; not fully specified (N-terminus, C-terminus)
B9: BCL9 peptide 9 (linear precursor of 17) (peptide)
chain: LSQEQLEHR[Pra]RSL[dLys(N3)]TLRDIQRLLF
modifications: not fully specified (N-terminus, C-terminus)
B10: triazole-stapled BCL9 peptide 18 (reversed staple, D-Pra at position 360) (peptide)
chain: LSQEQLEHR[dPra]RSL[Lys(N3)]TLRDIQRLLF
modifications: triazole 10-14; not fully specified (N-terminus, C-terminus)
B11: BCL9 peptide 4 (linear precursor of 12) (peptide)
chain: LSQEQLEHR[Lys(N3)]RSL[dPra]TLRDIQRLLF
modifications: not fully specified (N-terminus, C-terminus)
B12: triazole-stapled BCL9 peptide 11 (peptide)
chain: LSQEQLEHR[Lys(N3)]RSL[Pra]TLRDIQRLLF
modifications: triazole 10-14; not fully specified (N-terminus, C-terminus)
B13: triazole-stapled BCL9 peptide 12 (peptide)
chain: LSQEQLEHR[Lys(N3)]RSL[dPra]TLRDIQRLLF
modifications: triazole 10-14; not fully specified (N-terminus, C-terminus)
B14: BCL9 peptide 3 (linear precursor of 11) (peptide)
chain: LSQEQLEHR[Lys(N3)]RSL[Pra]TLRDIQRLLF
modifications: not fully specified (N-terminus, C-terminus)
B15: BCL9 24-mer peptide 1 (peptide)
peptide: Ac-LSQEQLEHRERSLQTLRDIQRMLF-NH2
B16: BCL9 24-mer peptide 2 (M372L) (peptide)
peptide: Ac-LSQEQLEHRERSLQTLRDIQRLLF-NH2

Bridges are numbered along the chain shown (N, C = ends). Where no end group is shown, it is not given here. [ ]: non-standard residue; d: D form. dLys(N3) = [N-]=[N+]=NCCCC[C@@H](N)C(=O)O; Lys(N3) = [N-]=[N+]=NCCCC[C@H](N)C(=O)O; dPra = C#CC[C@@H](N)C(=O)O; Pra = C#CC[C@H](N)C(=O)O

Drawing on paper PMC3286869 (Journal of Medicinal Chemistry, 2012), this text covers Ki for 16 molecules.

The first test addresses T1, β-catenin. Briefly: fluorescence polarisation. (Fluorescence polarisation rises when a labelled molecule tumbles more slowly, as on binding a larger partner.)
One may read the Ki as a measure of affinity in units of concentration, obtained from inhibition or displacement. A high value points to a looser hold on the target. Take B1: the affinity, expressed as Ki, was 1970 nM. B2 had a Ki of 560 nM. B3 registered a Ki of 260 nM. On the same count and under the same terms, the result for B4 reads 6660 nM. B5 showed a Ki of 2010 nM. The molecule B6 gave a Ki of 410 nM.

The next test concerns the target T1, β-catenin. Briefly: fluorescence polarisation. The source holds these as a separate data set.
Regarding B7, the Ki came out at 1170 nM.

For the molecule B8, the inhibition constant Ki is 770 nM. In turn, B9 registered an inhibitory constant (Ki) of 11000 nM. As for B10, the Ki worked out at 4300 nM.

Consider B11, for which the affinity corresponds to a Ki of 4900 nM. Same read-out and setting: the result for B12 reads 330 nM; that for B13, 130 nM.

Molecule B14 yielded a Ki of 1400 nM. Molecule B15 gave a Ki of 600 nM. In the case of B16, the Ki turned out to be 940 nM.
